The record followed here is US8481255B2, “Scytovirin domain 1 related polypeptides” (The United States of America, as represented by the …, priority 2005, dated 2013).

The test system of data set [1] is HIV-1RF. As to the kind of experiment: XTT-tetrazolium based anti-HIV assay, acute HIV-1 infection in CEM-SS cells. Format: cell-based. The note with it: T-tropic laboratory strain HIV-1RF in CEM-SS cells; read-out: EC50 against HIV-1RF. From the text:
(§1) The protocol followed was the same as described in Gulakowski et al., J. Virol. Methods, 33: 87-100 (1991).
The deletion mutants were subjected to the XTT-tetrazolium based assay as described in Example 2.

Data set [2] has as its system gp41. Conditions: various concentrations of oligomannose-8. As to the method: (§2) Scytovirnin specifically binds to a α-1-2, α1-2, α1-6-linked tetramannoside, a substructure of oligomannose-8 and -9 found on HIV envelope glycoproteins gp120 and gp41 (Adams et al., Chem. Biol., 11(6): 875-881 (2004)). […] Briefly, a 96-well plate was prepared as described in Example 1 with glycosylated gp120 or gp41 and 100 ng/well of scytovirin or a scytovirin-derived peptide. […] Each well also contained (a) various concentrations of oligomannose-8, (b) 100 μM of glucose, mannose, galactose, xylose, or N-acytylglucosamine, or (c) 100 μg/well α-acid glycoprotein (to act as a carrier for sialic acid). The plate was then washed and visualized using anti-scytovirin polyclonal antibodies as described in Example 1.

Data set [3] deals with HIV gp120. Conditions: 100 μM sugar or 100 μg/well α-acid glycoprotein; 100 ng/well peptide. As to the method: as §2
Data set [4] concerns the target HIV-1 gp41 ectodomain (Human immunodeficiency virus type 1 group M subtype B, UniProt P03375). Conditions: 100 ng/well gp41, absorbance at 450 nm. As to the method: (§3) Briefly, the 100 ng/well of either gp120 and gp41 proteins was bound to a 96-well plate, which was then rinsed with PBS containing 0.05% Tween 20 (TPBS) and blocked with BSA. Between each subsequent step, the plate was again rinsed with TPBS (x3). […] Upon addition of the horseradish peroxidase substrate buffer and color formation, the reaction was stopped by the addition of 2M H2SO4 (after 5 minutes for the gp120 plate and 15 minutes for the gp41 plate) and absorbance was measured at 450 nm for each well.

The target of data set [5] is HIV-1 gp120 (Human immunodeficiency virus type 1 group M subtype B, UniProt P03375). The note with it: 100 ng/well gp120, absorbance at 450 nm. As to the method: as §3
The test system of data set [6] is CEM-SS cells.
Source text: as §1

Where only a bound is given, the exact number is not on record here.

Consider “SD1: polypeptide of SEQ ID NO: 1, derived from amino acids 1-48 of scytovirin (scytovirin domain 1) (GSGPTYSWNEANNPGGPNRCSNNKQCDGARTCSSSGFCQGTSRKPDPG)”, for which, in data set [1], the EC50 is 6.6 nM. Also, the “inhibition of binding to gp41 by oligomannose-8” value in data set [2] is “able to inhibit the binding of SD1 to gp41 in a concentration-dependent manner”. In addition, the “inhibition of binding to gp120 by glucose, mannose, galactose, xylose, N-acytylglucosamine, α-acid glycoprotein with sialic acid” value in data set [3] was “not able to inhibit binding”. In addition, in data set [4], the “binding affinity to gp41 (ELISA)” value is listed as “approximately the same affinity”. Besides, the “binding affinity to gp120 (ELISA)” value in data set [5] was “approximately the same affinity”. Further, in data set [6], the “toxicity to the CEM-SS cell line, not detected at concentrations up to” value was > 10,000 nM.

B1: scytovirin: antiviral scytovirin polypeptide, SEQ ID NO: 4 (protein, listed as Scytonema varium)
chain: GSGPTYCWNEANNPGGPNRCSNNKQCDGARTCSSSGFCQGTSRKPDPGPKGPTYCWDEAKNPGGPNRCSNSKQCDGARTCSSSGFCQGTAGHAAA
Turning to B1, the EC50 in data set [1] was 7.5 nM. In addition, the “binding affinity to gp41 (ELISA)” value in data set [4] is given as “approximately the same affinity”. The “binding affinity to gp120 (ELISA)” value in data set [5] was “approximately the same affinity”. Further, the “toxicity to the CEM-SS cell line, not detected at concentrations up to” value in data set [6] is on record as > 10,000 nM.

For orientation: EC50 means the concentration needed to bring the measured effect to its halfway point.
